Assay results as given in publication PMC7256037, “Identification and characterization of mammaglobin-A epitope in heterogenous breast cancers for enhancing tumor-targeting therapy” (Signal Transduction and Targeted Therapy, 2020).

How the values were obtained:
[1] = biological target: T1, human mammaglobin-A (Mam-A) protein, antigen of the ELISA and SPR (Homo sapiens, UniProt Q13296); test: ELISA; indirect ELISA of the mAbs on Mam-A
T1 construct: mammaglobin-A, human

[2] = biological target: T2, mammaglobin-A (Mam-A) on breast cancer cells and in breast cancer tissue (Homo sapiens, UniProt Q13296); test: immunostaining of cells or tissue; ZR75.1 cells and tumor slides (GFP in the cytoplasm) fixed with cold methanol/acetone, mAb then AF594-labeled anti-mouse IgG, confocal microscopy; details: one partner purified
T2 construct: mammaglobin-A, endogenous in human breast cancer cells and tissue; Cells were fixed with cold methanol/acetone before staining; also called membrane-associated Mam-A; source: endogenous, breast cancer cell lines (ZR75.1, MCF-7, SKBR3, MDA-MB-231) and breast cancer tissue sections
T2 sequence (Q13296 19-93): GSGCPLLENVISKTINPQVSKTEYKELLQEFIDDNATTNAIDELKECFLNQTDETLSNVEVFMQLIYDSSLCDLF

Peptide 733-3RE-2 = biological target: T3, Peptide 733-3RE-2 (Homo sapiens); test: immunostaining of cells or tissue; pre-blocking test: synthetic peptide pre-incubated with mAb785; binding of the peptide read from the loss of immunostaining of breast cancer sections; details: both partners purified
T3 construct: residues 42-51 of human mammaglobin-A; also called truncated peptide without PV; source: synthetic peptide
T3 chain: YKELLQEFID

Measured: binding result

T1 sequence (Q13296 19-93): as above

B1: mAb785 (antibody, V domains shown)
VH: EVKLVESGGGLVKPGGSLKLSCAASGFTLSNHGMSWVRQTSEKRLEWVASISIRGNTYYLDSVEGRFTISRDDARNILYLQMSGLRSEDTAIYYCTYFTSVVWGQGTTLTVSS
VL: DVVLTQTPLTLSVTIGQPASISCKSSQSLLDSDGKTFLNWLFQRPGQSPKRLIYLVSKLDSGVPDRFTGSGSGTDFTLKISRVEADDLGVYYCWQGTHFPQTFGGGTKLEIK
notes: Whole monoclonal antibody raised against human Mam-A; detected with anti-mouse IgG secondary antibodies, so probably a mouse IgG; also called anti-Mam-A mAb785
binds: all assays above
